Source: PMC8602277, “Crystal structures of the elusive Rhizobium etliL-asparaginase reveal a peculiar active site” (Nature Communications, 2021)
Residue numbers refer to the chain shown, from its start. Numbers in names are those of the source.

Tests used:
[1] = substrate: NC(=O)C[C@H](N)C(=O)O; experiment: ITC, multiple injection mode, Michaelis-Menten fit; assay type: biochemical, Rhizobium etli; conditions: 30 mM phosphate pH 9.0, 37 °C, Zn-containing native enzyme, Hill coefficient 1.6 by separate Hill fit
[2] = target: the molecule itself; experiment: SEC; analytical Superdex75 10/300 GL column, 50 mM phosphate buffer pH 7.5 with 20 mM NaCl, room temperature
[3] = target: the molecule itself; experiment: crystal structure; WT ReAV in four crystal forms (OP, MP1, MP2, MC) plus the S-SAD START data set; one or two dimers in the asymmetric unit; crystals grown at 19 °C by hanging drop vapor diffusion

B1: ReAV (inducible R. etli L-asparaginase, AnsA) (Rhizobium etli CFN 42) (protein)
chain: MTPSEDFVVTDRGGIVENSHRVHAAVVDAKGRLLYALGNPTRMTLARSAAKPAQALAILETEGVAGYGFDDADIALMCASHSSEDRHIARTRAMLSKIKAEEADLRCGGHPSLSEMVNRSWIKQDFIPTAVCSNCSGKHVGMLAGARAIGAGTDGYHLPDHPMQGRVKRTVAELCDLDAGDVEWGTDGCNLPTPAFPLDRLGRIYAKLASAADGSDAGEGQSTRCAALAHIFRAMARHPEMVAGEGRYCTMLMRAFDGALVGKLGADASYAIGVRASDATRQLGTDGALGISVKIEDGNLEMLYAVVTELLERLGIGSPDVRSQLASFHHPQRVNTMGVTTGGVSFPFKLRGSKSNVDDPRLAAVAR
notes: full-length wild type, 367 residues, expressed in E. coli BL21 STAR (DE3) from pET151-D-TOPO, N-terminal His6-tag cut with TEV protease; homodimer, one Zn2+ per subunit
Km [1]: 4.2 ± 0.3 mM
kcat [1]: 438 ± 32 s⁻¹

B2: ReAV K263A mutant (enzyme, Rhizobium etli (strain CFN 42))
chain: B1 chain with K263A
notes: inducible L-asparaginase ReAV (AnsA) of Rhizobium etli strain CFN 42; printed length 367 residues; source: E. coli BL21 STAR (DE3), purified as the WT protein; not shown: His6, N-terminal, cleaved
stoichiometry N [2]: 2

B3: ReAV C135A mutant (enzyme, Rhizobium etli (strain CFN 42))
chain: B1 chain with C135A
notes: as for B2
stoichiometry N [2]: 2

B4: ReAV S80A mutant (enzyme, Rhizobium etli (strain CFN 42))
chain: B1 chain with S80A
notes: inducible L-asparaginase ReAV (AnsA) of Rhizobium etli strain CFN 42; printed length 367 residues; CD spectra indicate incorrect folding or strong structural distortion; source: E. coli BL21 STAR (DE3), mostly in inclusion bodies, soluble part purified as the WT protein; not shown: His6, N-terminal, cleaved
stoichiometry N [2]: 2

B5: ReAV S48A mutant (enzyme, Rhizobium etli (strain CFN 42))
chain: B1 chain with S48A
notes: as for B4
stoichiometry N [2]: 2

B6: ReAV K51A mutant (enzyme, Rhizobium etli (strain CFN 42))
chain: B1 chain with K51A
notes: as for B2
stoichiometry N [2]: 2

B7: inducible Rhizobium etli L-asparaginase ReAV, wild type (enzyme, Rhizobium etli (strain CFN 42))
chain: B1 chain
modifications: Cys249 most likely oxidized, modeled as S-hydroxycysteine in the crystal structures
notes: inducible L-asparaginase ReAV (AnsA) of Rhizobium etli strain CFN 42, encoded on plasmid p42e; printed length 367 residues; also called WT ReAV; AnsA; source: E. coli BL21 STAR (DE3), purified (HisTrap Ni, TEV cleavage, second HisTrap Ni, Superdex 200); not shown: His6, N-terminal, cleaved
stoichiometry N [3]: 2
